Laboratory results: PMC10508983, “Nucleotide-free structures of KIF20A illuminate atypical mechanochemistry in this kinesin-6” (Open Biology, 2023)

B1: KIF20A 55–665 (domain or fragment, mouse, UniProt P97329 55-665, looked up)
chain: ALLEDTSEKVKVYLRIRPFLTSELDRQEDQGCVCIENTETLVLQAPKDSFALKSNERGVGQATHKFTFSQIFGPEVGQVAFFNLTMKEMVKDVLKGQNWLIYTYGVTNSGKTYTIQGTSKDAGILPQSLALIFNSLQGQLHPTPDLKPLLSNEVIWLDSKQIRQEEMKKLSLLIGGLQEEELSTSVKKRVHTESRIGASNSFDSGVAGLSSTSQFTSSSQLDETSQLWAQPDTVPVSVPADIRFSVWISFFEIYNELLYDLLEPPSHQHKRQTLRLCEDQNGNPYVKDLNWIHVRDVEEAWKLLKVGRKNQSFASTHMNQQSSRSHSIFSIRILHLQGEGDIVPKISELSLCDLAGSERCKHQKSGERLKEAGNINTSLHTLGRCIAALRQNQQNRSKQNLIPFRDSKLTRVFQGFFTGRGRSCMIVNVNPCASTYDETLHAAKFSALASQLVHAPPVHLGIPSLHSFIKKHSPQVGPGLEKEDKADSDLEDSPEDEADVSVYGKEELLQVVEAMKALLLKERQEKLQLEIQLREEICNEMVEQMQQREQWCSERLDNQKELMEELYEEKLKILKESLTTFYQEQIQERDEKIEELETLLQEAKQQPAAQQ
notes: source: E. coli NiCO21 (DE3), purified (chitin resin, HisTrap HP, size-exclusion chromatography)
B2: KIF20A 1–665 (His-tagged dimeric motor construct) (domain or fragment, mouse, UniProt P97329 1-665, looked up)
chain: MSHRILSPPAGLLSDEDVVDSPILESTAADLRSVVRKDLLSDCSVISASLEDKQALLEDTSEKVKVYLRIRPFLTSELDRQEDQGCVCIENTETLVLQAPKDSFALKSNERGVGQATHKFTFSQIFGPEVGQVAFFNLTMKEMVKDVLKGQNWLIYTYGVTNSGKTYTIQGTSKDAGILPQSLALIFNSLQGQLHPTPDLKPLLSNEVIWLDSKQIRQEEMKKLSLLIGGLQEEELSTSVKKRVHTESRIGASNSFDSGVAGLSSTSQFTSSSQLDETSQLWAQPDTVPVSVPADIRFSVWISFFEIYNELLYDLLEPPSHQHKRQTLRLCEDQNGNPYVKDLNWIHVRDVEEAWKLLKVGRKNQSFASTHMNQQSSRSHSIFSIRILHLQGEGDIVPKISELSLCDLAGSERCKHQKSGERLKEAGNINTSLHTLGRCIAALRQNQQNRSKQNLIPFRDSKLTRVFQGFFTGRGRSCMIVNVNPCASTYDETLHAAKFSALASQLVHAPPVHLGIPSLHSFIKKHSPQVGPGLEKEDKADSDLEDSPEDEADVSVYGKEELLQVVEAMKALLLKERQEKLQLEIQLREEICNEMVEQMQQREQWCSERLDNQKELMEELYEEKLKILKESLTTFYQEQIQERDEKIEELETLLQEAKQQPAAQQ
notes: source: E. coli NiCO21 (DE3), purified (chitin resin, HisTrap HP, size-exclusion chromatography); not shown: His6, C-terminal, kept
B3: KIF20A 25–665 (domain or fragment, mouse, UniProt P97329 25-665, looked up)
chain: ESTAADLRSVVRKDLLSDCSVISASLEDKQALLEDTSEKVKVYLRIRPFLTSELDRQEDQGCVCIENTETLVLQAPKDSFALKSNERGVGQATHKFTFSQIFGPEVGQVAFFNLTMKEMVKDVLKGQNWLIYTYGVTNSGKTYTIQGTSKDAGILPQSLALIFNSLQGQLHPTPDLKPLLSNEVIWLDSKQIRQEEMKKLSLLIGGLQEEELSTSVKKRVHTESRIGASNSFDSGVAGLSSTSQFTSSSQLDETSQLWAQPDTVPVSVPADIRFSVWISFFEIYNELLYDLLEPPSHQHKRQTLRLCEDQNGNPYVKDLNWIHVRDVEEAWKLLKVGRKNQSFASTHMNQQSSRSHSIFSIRILHLQGEGDIVPKISELSLCDLAGSERCKHQKSGERLKEAGNINTSLHTLGRCIAALRQNQQNRSKQNLIPFRDSKLTRVFQGFFTGRGRSCMIVNVNPCASTYDETLHAAKFSALASQLVHAPPVHLGIPSLHSFIKKHSPQVGPGLEKEDKADSDLEDSPEDEADVSVYGKEELLQVVEAMKALLLKERQEKLQLEIQLREEICNEMVEQMQQREQWCSERLDNQKELMEELYEEKLKILKESLTTFYQEQIQERDEKIEELETLLQEAKQQPAAQQ
notes: as for B1

Biological target: the molecule itself
Assay: SEC-MALS; 5 mg ml^-1 of each protein injected into a Superdex 200 10/30 Increase column; MALS and refractive index

Stoichiometry N, 2:
B1
B2
B3
